Measured values as given in article PMC9481538, “The interaction between LC8 and LCA5 reveals a novel oligomerization function of LC8 in the ciliary-centrosome system” (Scientific Reports, 2022).

Assays:
[1] = biological target: T1, LC8 (Homo sapiens, UniProt Q96FJ2); assay: isothermal titration calorimetry, sLCA5 fragments titrated with LC8; type: binding; details: ITC, PBS pH 7.4, 1 mM TCEP, 37 °C; MBP-fused sLCA5 titrated with LC8
T1 construct: 6xHis (N); made in house; host or cells: E. coli BL21 (DE3) Rosetta
T1 sequence (Q96FJ2 whole entry, the tested form may be a part): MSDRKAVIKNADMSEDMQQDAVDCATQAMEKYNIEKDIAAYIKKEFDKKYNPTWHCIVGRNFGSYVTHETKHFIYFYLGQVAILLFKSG
Experimental: LC8 and MBP-fused LCA5 constructs were prepared in PBS supplemented with 1 mM TCEP. Before measurement, protein samples were dialyzed overnight in PBS pH 7.4 (Orange Scientific, OrDial D14 membrane). Peptides were diluted from stock with the buffer used for dialysis. The concentration of samples was determined based on absorbance at 280 nm in the case of proteins, and 205 nm for the peptide. Experiments were performed using MicroCal PEAQ-ITC (Malvern Panalytical), LCA5 peptides were measured at 25 °C, proteins were analyzed at 37 °C. Lebercilin peptide was injected into the cell 18 times 2 μl volumes, with 5 min timing between injections. In case of the protein, LCA5 was placed in the sample cell, and LC8 was injected during 37 injections, 1 μl each. The results were evaluated using MicroCal PEAQ-ITC Analysis Software.

[2] = test system: GST-fused LC8; assay: GST pull-down of LC8 and sLCA5; type: binding; details: GST-LC8 bait, MBP-, 6x-His-fused sLCA5 prey, PBS, 1 mM DTT, room temperature; result in words
Experimental: For the pull-down experiments, GST-fused LC8 was used as bait, and MBP-, 6x-His-fused LCA5 variants as prey. For controls, GST and MBP were used. Proteins were expressed in 100 ml cultures of E. coli BL21 (DE3) Rosetta cells as described above. Cells were harvested, resuspended in 5 ml PBS supplemented with 1 mg/ml lysozyme and 1 mM DTT, sonicated and clarified by centrifugation. 20 μl of Glutathione Sepharose 4B (Macherey–Nagel) (75%) resin was used for each experiment. Baits were incubated with the resin for 1 h at room temperature, then washed with PBS supplemented with 1 mM DTT. Prey proteins were added and incubated for one hour. The beads were washed and eluted by boiling in a 2 × SDS sample buffer and analyzed in tricine SDS page according to the protocol of Schagger et al[43].

[3] = analytical gel filtration; type: physicochemical; details: with LC8, 60 min at 37 °C vs non-incubated complex
Experimental: For analytical gel filtration a Superose 6 Increase 10/300 (Cytiva) was used with an effective resolution between 5–5000 kDa range and a void volume above 5000 kDa. The column was equilibrated in DPBS supplemented with 200 μM TCEP. The calibration curve was fitted on the chromatogram of gel filtration standard mix (BioRad) with the addition of Dextran Blue to determine the void volume. 100 μl of LCA5 purified protein or LCA5-LC8 complex was injected at the concentration of 30 μM for LCA5 and 150 μM for LC8, with a flow rate of 500 μl/min immediately or after 60 min of incubation at 37 °C. For densitometric analysis, fractions were collected and 200 μl of samples were precipitated in 1.8 ml 96% ethanol at − 80 °C for 2 h. The samples were centrifugated for 30 min at 14,000 g, and dissolved in 15 μl of SDS sample buffer. 10 μl of each sample was run on Tricine-SDS gel. The calibration of the densitometry was performed on samples of known molar ratio of sLCA5 construct and LC8 (see the original gel used for calibration on Suplementary Fig. S16). Data evaluation was performed by using Origin 8 software and Fiji ImageJ software.

[4] = negative staining transmission electron microscopy of sLCA5-LC8 complexes; type: physicochemical
Experimental: For TEM negative staining experiments, a JEOL JEM-1011 (JEOL Ltd., Tokyo, Japan) electron microscope was used. The purified LCA5-LC8 complexes or LC8 or LCA5 forms alone were put together by using LCA5-WT or the single or double mutants at 30 μM and LC8 at 150 μM concentration in a buffer of 20 mM Tris 70 mM NaCl, pH 7.4, and incubated at 37 °C for 1 h. The complexes were diluted to a final 0.2 mg/ml concentration in the buffer and applied to 300 mesh formvar/carbon-coated copper grids (SPI Inc., USA). After 2 min of incubation the surplus was removed by filter paper and 1% uranyl acetate was applied for 1 min as negative staining. Images were taken around the middle of the grid at 5000, 50,000, 150,000 and 300,000-fold magnification. The collected data was analyzed by Fiji ImageJ software, and the statistical analysis was carried out in Origin 8 software.

[5] = test system: HA-tagged LC8; assay: co-immunoprecipitation of LC8 with full-length FLAG-LCA5 in HEK293 cells; type: cell-based, human; details: for co-immunoprecipitation of LC8: HEK-293, FLAG-LCA5 and HA-LC8 co-expressed 48 h, anti-LCA5 and anti-FLAG antibodies
Experimental: HEK-293 cells were transfected with FLAG-LCA5-pcDNA3.1 + and HA-LC8-pcDNA3.1 + constructs and incubated for 48 h. After 48 h, cells were washed with ice-cold DPBS (Lonza) and lysed on ice with lysis buffer (50 mM TRIS 2 mM EDTA 100 mM NaCl 10% Glycerol and 0.5% IGEPAL supplemented with protease (Sigma Aldrich) and phosphatase (Sigma-Aldrich) inhibitors). Total protein concentration was determined by the BCA kit (Sigma Aldrich). For each co-immunoprecipitation reaction 1 mg total protein was used and 20 μg of anti-lebercilin (19,333-1-AP Proteintech), anti-LC8 (16,811–1-AP Proteintech), polyclonal antibody, anti-FLAG (8146 Cell Signaling Technologies), anti-MYC (2276 Cell Signaling Technologies) or anti-HA (sc-7392 Santa Cruz Biotechnology) monoclonal antibody was added respectively and incubated for 4 h at 4 °C. The immunocomplexes were incubated with protein A/G sepharose beads (Cell Signaling Technologies) overnight. The immunocomplex-containing beads were washed three times in lysis buffer, then two times in detergent-free lysis buffer, proteins were eluted by boiling in 2 × Laemmli buffer. The samples were analyzed by 10% tricine-SDS PAGE. The SDS gel was cut half above the 35 kDa marker band and subsequently blotted onto two separate Amersham Hybond PVDF membrane (GE Healthcare). The LCA5 containing upper half was blotted for 180 min, the LC8 containing lower part was blotted for 80 min. The membranes were blocked in 5% BSA and the LCA5 and LC8 containing parts are incubated with mouse anti-FLAG 1:1000 (8146 Cell Signaling Technologies), and rabbit anti-LC8 1:1000 (ab51603 Abcam) primary antibodies respectively overnight at 4 °C. After washing with TBS-T, membranes were incubated with secondary antibodies (ECL PLEX Goat-Anti-Rabbit IgG CY5 1:1500 and CL PLEX Goat-Anti-Mouse IgG CY3 1:1500, Ge Healthcare) for 1 h at room temperature, then scanned in a Typhoon scanner (GE Healthcare).

[6] = test system: LC8 in hTERT-RPE1 cells; assay: immunofluorescence colocalization of LCA5 and LC8; type: cell-based; details: for Pearson's correlation coefficient, LCA5 and LC8: Z-stack images, JACoP
Experimental: hTERT-RPE1 cells were seeded on poly-lysine-coated 21 mm coverslips. After 24 h, cells were serum-starved for an additional 72 h. Cells were washed with DPBS (Lonza) two times and once in cytoskeletal buffer (10 mM PIPES, 100 mM NaCl, 3 mM MgCl2, 300 mM Sucrose, 5 mM EGTA, 0.5% Triton-X 100, pH 6.9)[44]. Subsequently, cells were fixed in a cytoskeletal buffer containing 4% PFA for 10 min at 37 °C. Fixed cells were washed with DPBS and permeabilised for an additional 30 min in 0.5% Triton-X 100 in DPBS and incubated for 1 h in a blocking buffer (2% BSA, 0.1% Triton-X 100 in DPBS) at room temperature. Primary and secondary antibodies were diluted in a blocking buffer. The cells were incubated with rabbit anti-lebercilin 1:200 (Proteintech 19,333-1-AP), goat anti-LC8 1:100 (Invitrogen PA5-47,957), mouse anti-acetylated-α-tubulin 1:15,000 (Sigma Aldrich 5335S) overnight at 4 °C. Finally, cells were treated with secondary antibodies (anti-goat-Alexa Fluor 488 1:800, anti-mouse-CY3 1:800, anti-rabbit-Alexa Fluor 647 1:800 Jackson ImmunoResearch) for 1 h at room temperature. Coverslips were mounted using ProLong Diamond antifade mountant with DAPI (Invitrogen) and imaged with an inverted Zeiss LSM 800, the image processing was completed with Fiji ImageJ software. The calculations of the colocalization were performed using the JACoP plugin of ImageJ software. The Pearson’s coefficient and the Manders coefficients were calculated on Z-stack images of primary cilia and centrosomes of hTERT-RPE1 cells using manual thresholds. For the statistical analysis of the colocalization a randomization based Costes method was used.

[7] = centrosome, late interphase hTERT-RPE1 cells
[8] = ciliary basal body, ciliated hTERT-RPE1 cells

B1: sLCA5-ΔCQS: sLCA5 with alanine mutations in the CQS motif core; VQT motif intact (protein)
chain: DTDLVTKRILSARLLKINELQNEVSELQVKLAELLKENKSLKRLQYRQEKALNKFEDAENEISQLIFRHNNEITALKERLRKSQEKERATEKRVKDTESELFRTKFSLQKLKEISEARHLPERDDLAKKLVSAELKLDDTERRIKELSKNLELSTNSFQRQLLAERKRAYEAHDENKVLQKEVQRLYHKLKEKERELDIKNIYSNRLPKSSPNKEKELALRKNAAAAADFADLCTKGVQTMEDFKPEEYPLTPETIMCYENKWEEPGHLTLDLQSQKQDRHGEAGILNPIMEREEKFVTDEELHVVKQEVEKLEDEWEREELDKKQKEKASLLER
modifications: left off: MBP, N-terminal, kept | His6, C-terminal, kept
notes: sLCA5 with alanine mutations in the CQS motif core; VQT motif intact
For B1, the “− TΔS” value [1] was 0.07 kcal/mol, the “interaction with LC8 (GST pull-down)” value [2] was “maintained the interaction with LC8” and the “void fraction increment on incubation” value [3] was 35%. For the same molecule, the “measured diameter median of spherical complexes” value ([4]; 30 μM sLCA5 + 150 μM LC8, 37 °C 1 h, 20 mM Tris 70 mM NaCl pH 7.4) was 32 nm and the “amount of detectable oligomeric particles” value ([4]; TEM, result in words) was “notable amount of particles around the edges of the grids”.

B2: FLAG-LCA5: full-length LCA5 with N-terminal FLAG-tag (protein)
chain: MGERAGSPGTDQERKAGKHHYSYLSDFETPQSSGRSSLVSSSPASVRRKNPKRQTSDGQVHHQAPRKPSPKGLPNRKGVRVGFRSQSLNREPLRKDTDLVTKRILSARLLKINELQNEVSELQVKLAELLKENKSLKRLQYRQEKALNKFEDAENEISQLIFRHNNEITALKERLRKSQEKERATEKRVKDTESELFRTKFSLQKLKEISEARHLPERDDLAKKLVSAELKLDDTERRIKELSKNLELSTNSFQRQLLAERKRAYEAHDENKVLQKEVQRLYHKLKEKERELDIKNIYSNRLPKSSPNKEKELALRKNAACQSDFADLCTKGVQTMEDFKPEEYPLTPETIMCYENKWEEPGHLTLDLQSQKQDRHGEAGILNPIMEREEKFVTDEELHVVKQEVEKLEDEWEREELDKKQKEKASLLEREEKPEWETGRYQLGMYPIQNMDKLQGEEEERLKREMLLAKLNEIDRELQDSRNLKYPVLPLLPDFESKLHSPERSPKTYRFSESSERLFNGHHLQDISFSTPKGEGQNSGNVRSPASPNEFAFGSYVPSFAKTSERSNPFSQKSSFLDFQRNSMEKLSKDGVDLITRKEKKANLMEQLFGASGSSTISSKSSDPNSVASSKGDIDPLNFLPGNKGSRDQEHDEDEGFFLSEGRSFNPNRHRLKHADDKPAVKAADSVEDEIEEVALR
modifications: left off: FLAG, N-terminal, kept
notes: full-length LCA5 with N-terminal FLAG-tag
In the case of B2, the “co-immunoprecipitation of LC8” value [5] is reported as “interaction was detected”, the “co-immunoprecipitation of LC8” value ([5]; listed as FLAG-tagged LCA5) is reported as “LC8 was co-precipitated” and the co-immunoprecipitation interaction ([5]; HEK-293, FLAG-LCA5 and HA-LC8 co-expressed, precipitation with anti-HA and anti-LC8 antibodies) is reported as “no”.

B3: LCA5: 697 amino acid long protein lebercilin, cellular (protein, UniProt Q86VQ0 1-697, looked up)
chain: MGERAGSPGTDQERKAGKHHYSYLSDFETPQSSGRSSLVSSSPASVRRKNPKRQTSDGQVHHQAPRKPSPKGLPNRKGVRVGFRSQSLNREPLRKDTDLVTKRILSARLLKINELQNEVSELQVKLAELLKENKSLKRLQYRQEKALNKFEDAENEISQLIFRHNNEITALKERLRKSQEKERATEKRVKDTESELFRTKFSLQKLKEISEARHLPERDDLAKKLVSAELKLDDTERRIKELSKNLELSTNSFQRQLLAERKRAYEAHDENKVLQKEVQRLYHKLKEKERELDIKNIYSNRLPKSSPNKEKELALRKNAACQSDFADLCTKGVQTMEDFKPEEYPLTPETIMCYENKWEEPGHLTLDLQSQKQDRHGEAGILNPIMEREEKFVTDEELHVVKQEVEKLEDEWEREELDKKQKEKASLLEREEKPEWETGRYQLGMYPIQNMDKLQGEEEERLKREMLLAKLNEIDRELQDSRNLKYPVLPLLPDFESKLHSPERSPKTYRFSESSERLFNGHHLQDISFSTPKGEGQNSGNVRSPASPNEFAFGSYVPSFAKTSERSNPFSQKSSFLDFQRNSMEKLSKDGVDLITRKEKKANLMEQLFGASGSSTISSKSSDPNSVASSKGDIDPLNFLPGNKGSRDQEHDEDEGFFLSEGRSFNPNRHRLKHADDKPAVKAADSVEDEIEEVALR
modifications: full-length
notes: 697 amino acid long protein lebercilin, cellular
For B3, the “thresholded Manders LC8 to LCA5 tM2” value [6, 7] was 0.574, the “thresholded Manders LCA5 to LC8 tM1” value [6, 7] was 0.929 and the “Pearson's correlation coefficient, LCA5 and LC8” value [6, 7] was 0.802. The “thresholded Manders LC8 to LCA5 tM2” value [6, 8] was 0.718, the “thresholded Manders LCA5 to LC8 tM1” value [6, 8] was 0.671 and the “Pearson's correlation coefficient, LCA5 and LC8” value [6, 8] was 0.715.
